B1: Hairpin Ribozyme (parent)
chain: GUCCUCUUUCACGUGCGCGUGAAAGAGAGAAGUGAACCAGAGAAACACACGUUGUGGUAUAUUACCUGGUA

Here are results for 167 variants from the RNAGym collection of RNA variant scans (doi:10.7554/elife.80360).

In this data set the parent is B1. Nature of the data set: self-cleavage, relative activity (ratio to wild type); higher = more cleavage; co-transcriptional.
As for U53G C65G, the self-cleavage is 0.0347.
The same measure for U53G C65U: 0.413.
The figure for G54U U55A is 0.354; for U53G U60G it is 0.704; for G54C U63C it is 0.099.
The figure for G54C U63A is 0.103; for G54U U70G it is 0.43; for G54U U70C it is 0.569.
In the case of U53A U62C, the self-cleavage is 0.231.
The figure for U55C G68U is 0.0915; for U55C G68C it is 0.159.
The same measure for U55A U63A: 0.0786; for U55A U63C: 0.106; for G54A G68A: 0.206.
For the variant U55G G68A, the self-cleavage worked out at 0.237.
The same measure for U55G G68C: 0.251; for U53A G54U: 0.609.
The figure for U53A G54C is 0.472.
The same measure for G54C C65U: 0.132; for G54C C65G: 0.151; for U55A A61U: 0.214.
As to U53G A71G, the self-cleavage was 0.73.
The figure for U53G U62A is 0.0694.
The same measure for U53C U58G: 0.948.
The same measure for U53A A59G: 0.177; for U53A A59U: 0.129.
As for U53A U58C, the self-cleavage was 0.574.
With U53A G57C, the self-cleavage stood at 0.145.
The figure for U55G G57U is 0.222.
Take U55A U58G: the self-cleavage was 0.183.
As to U55A U58C, the self-cleavage stood at 0.427.
The same measure for U53G U63A: 0.13.
The same measure for U53G U63C: 0.241; for G54U U67G: 0.171.
The same measure for U53A A61U: 0.248; for U55A G68A: 0.163.
Consider U53G G68A, for which the self-cleavage is 0.179.
Consider G54A G57C, for which the self-cleavage turned out to be 0.149.
On to U55C U60G, for which the self-cleavage was determined as 0.347.
As to U55C U60A, the self-cleavage is 0.168.
The same measure for G54U G69C: 0.194; for G54U G69U: 0.182; for U53A U60C: 1.31.
On to U55C A64U, for which the self-cleavage is 0.154.
The figure for U53C A59G is 0.303; for U55A U67C it is 0.149; for U53A G69A it is 0.484.
The figure for G54A U70A is 0.409; for G54A U70C it is 0.244; for G54A U70G it is 0.387.
G54C U62G: the self-cleavage was 0.141.
The same measure for U55C C66U: 0.157.
The same measure for U53C U62A: 0.119; for U53A U55A: 0.0855; for G54C A64C: 0.104.
The figure for U55A A59U is 0.205; for U53A U63A it is 0.153.
For the variant U53A U63G, the self-cleavage is 0.249.
The figure for G54A A71G is 0.426; for G54A A71U it is 0.309; for U55C U62G it is 0.132.
The figure for G54C U58C is 0.478; for G54C U58G it is 0.272.
The same measure for G54C U58A: 0.334; for G54C U55C: 0.245.
On to G54U G57A, for which the self-cleavage came to 0.164.
The same measure for G54U G57C: 0.177.
The same measure for G54U G57U: 0.282.
Consider U55G G56A, for which the self-cleavage was 0.125.
The figure for G54A U62A is 0.188.
The same measure for G54A U62G: 0.0558; for U55A C65A: 0.204; for G54U G56C: 0.24.
As for G54U G56A, the self-cleavage was found to be 0.114.
The same measure for U55A A64U: 0.302; for G54A U60C: 0.912; for G54A U60A: 0.409.
The same measure for U53G A64G: 0.599; for U55A U70G: 0.342; for U55A U70C: 0.311.
For the variant G54A U55G, the self-cleavage turned out to be 0.162.
Take G54A U55A: the self-cleavage stood at 0.39.
The same measure for U53C G68U: 0.361; for U53C G68C: 0.267; for U53C G68A: 0.328.
The same measure for U53C G69U: 0.378.
Turning to U53A C65U, the self-cleavage was 0.241.
Turning to U53A C65A, the self-cleavage is 0.901.
The figure for U53A C65G is 0.28; for G54U A59G it is 0.148.
The same measure for U53G G69A: 0.363; for U53G U70C: 0.783.
The figure for U53G U70A is 0.712.
For U53C G54C, the self-cleavage amounted to 0.546.
The figure for U53C G54U is 0.573; for U55A C66G it is 0.24; for U55A C66U it is 0.258.
The figure for U55C A61G is 0.181; for U53C G56C it is 0.149; for U53C G56A it is 0.211.
U55A U60C: the self-cleavage worked out at 0.712.
The same measure for G54C A61U: 0.105; for G54C A61G: 0.0386.
As for U52G U70A, the self-cleavage is 0.638.
The figure for U53C A64G is 0.616; for U53A U67G it is 0.385.
The same measure for U53A U67A: 0.109.
The figure for G54C G68C is 0.221; for G54C G68U it is 0.158; for U55C U67C it is 0.172.
Turning to U53C U63A, the self-cleavage stood at 0.177.
The figure for U53C U63C is 0.0362; for U53C U63G it is 0.144.
The same measure for U53A C66G: 0.247.
The same measure for G54U U62A: 0.229; for G54U U62G: 0.166; for U52G U60A: 0.4.
Consider U52G U60G, for which the self-cleavage stood at 0.298.
As to U53C A61G, the self-cleavage came to 0.254.
The same measure for U53C A61U: 0.377.
As to G54U C66G, the self-cleavage was 0.181.
For G54C C66G, the self-cleavage stood at 0.237.
The same measure for U55C U63C: 0.233.
Take G54A U63A: the self-cleavage is 0.209.
The figure for U55C C65U is 0.27; for G54C U67G it is 0.174; for G54U A71U it is 0.333.
The same measure for G54U A71G: 0.552.
For G54U A64U, the self-cleavage turned out to be 0.114.
On to G54C A71C, for which the self-cleavage was 0.961.
The same measure for G54C A71U: 0.243; for U53C A71C: 1.26; for U53C A71G: 1.05.
The same measure for U53C U55G: 0.306; for U53C U55C: 0.329.
The same measure for U53C U55A: 0.34.
For the variant U53A G68A, the self-cleavage came to 0.279.
The figure for U53A G68U is 0.2; for U53A G68C it is 0.249.
On to U53C U70C, for which the self-cleavage is 1.04.
The figure for U53C U70G is 0.765; for U53G it is 0.86.
The figure for U53A is 1.01; for U53C it is 0.97.
The same measure for G54A G56C: 0.0439; for G54U A61C: 0.152.
Turning to U53A G56U, the self-cleavage came out at 0.105.
The figure for U53C C66G is 0.328; for U53A A71G it is 1.07.
Take G54A U67C: the self-cleavage worked out at 0.12.
The figure for G54A U67A is 0.206.
The figure for G54A C66A is 0.229; for G54A C66U it is 0.272; for U55A G56A it is 0.168.
The figure for G54C G69C is 0.0871; for U55G A59C it is 0.156; for U55G A59G it is 0.139.
As for U55C U70G, the self-cleavage was found to be 0.203.
For U55G A71C, the self-cleavage is 0.708.
Turning to U53G C66A, the self-cleavage amounted to 0.131.
The figure for U55G C65A is 0.3.
The figure for G54C G57A is 0.0995; for U52G U67A it is 0.212; for U55C G57U it is 0.299.
The same measure for U55G A61U: 0.0838; for U55G A61C: 0.21; for U55G C66A: 0.201.
